Experimental data published in publication PMC12057046, “Elucidation of short linear motif-based interactions of the MIT and rhodanese domains of the ubiquitin-specific protease 8” (Biology Direct, 2025).
Blank lines part the entries; values can stand above or below the binder they belong to. Ends that are not written are not given here. * marks the point of attachment. FITC = O=C1OC2(c3ccc(O)cc3Oc3cc(O)ccc32)c2ccc(NC(=S)*)cc21

Columns and labels:
Conditions in all cases: both partners purified
[1] = target: T1, GST-tagged USP8 rhodanese domain (174-317) (human, UniProt P40818 174-317); assay: peptide or protein array; SPOT array, cellulose-bound peptides; GST-tagged Rhodanese domain 150 µM in 5% skim milk in TBST overnight at 4 °C; detected with HRP-conjugated anti-GST antibody
T1 construct: Ubiquitin carboxyl-terminal hydrolase 8 (USP8), human, rhodanese domain, residues 174-317; pETM33 vector, synthesized by GenScript; also called Rhod domain; source: E. coli BL21-Gold (DE3), purified (glutathione sepharose, eluted with reduced glutathione)
T1 sequence (looked up): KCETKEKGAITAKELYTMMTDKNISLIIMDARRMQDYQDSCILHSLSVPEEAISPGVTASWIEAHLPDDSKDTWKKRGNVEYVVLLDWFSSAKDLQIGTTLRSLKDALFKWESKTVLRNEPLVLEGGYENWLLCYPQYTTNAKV

[2] = target: T2, GST-tagged USP8 MIT domain (1-142) (human, UniProt P40818 1-142); assay: peptide or protein array; SPOT array, cellulose-bound peptides; GST-tagged MIT domain 100 µM in 5% skim milk in TBST overnight at 4 °C; detected with HRP-conjugated anti-GST antibody
T2 construct: Ubiquitin carboxyl-terminal hydrolase 8 (USP8), human, MIT domain, residues 1-142; pETM33 vector, synthesized by GenScript; source: E. coli BL21-Gold (DE3), purified (glutathione sepharose, eluted with reduced glutathione)
T2 sequence (looked up): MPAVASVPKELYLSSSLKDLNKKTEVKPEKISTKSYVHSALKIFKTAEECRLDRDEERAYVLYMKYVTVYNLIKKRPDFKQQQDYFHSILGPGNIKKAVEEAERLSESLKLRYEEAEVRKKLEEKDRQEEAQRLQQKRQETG

[3] = target: T3, USP8 rhodanese domain (174-317), GST tag cleaved (human, UniProt P40818 174-317); assay: fluorescence polarisation; competitive: 1.5 µM protein preincubated with 10 nM FITC-labeled peptide, displaced by increasing concentration of unlabeled peptide; 50 mM sodium phosphate pH 7.4, 1 mM DTT
T3 construct: Ubiquitin carboxyl-terminal hydrolase 8 (USP8), human, rhodanese domain, residues 174-317; also called Rhod domain; source: E. coli BL21-Gold (DE3), purified (glutathione sepharose, GST cleaved on beads with HRV 3C protease)
T3 sequence (looked up): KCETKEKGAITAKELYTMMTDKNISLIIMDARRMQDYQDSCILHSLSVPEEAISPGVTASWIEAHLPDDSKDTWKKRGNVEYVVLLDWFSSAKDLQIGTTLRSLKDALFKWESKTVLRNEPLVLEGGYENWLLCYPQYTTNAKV

USP8 Rhod (174–317) = target: T4, USP8 Rhod (174–317) (human, UniProt P40818 174-317); assay: fluorescence polarisation; direct binding: constant concentration of FITC-labeled peptide, increasing concentration of the protein; 50 mM sodium phosphate buffer pH 7.4, 1 mM DTT; KD from a fit to a quadratic equation
T4 construct: Ubiquitin carboxyl-terminal hydrolase 8 (USP8), human, UniProt P40818, rhodanese domain, residues 174-317; Construct in the pETM33 vector, synthesized by GenScript; also called USP8_Rhodanese; USP8 rhodanese domain; source: E. coli BL21-Gold (DE3), purified (GSH sepharose)
T4 sequence (looked up): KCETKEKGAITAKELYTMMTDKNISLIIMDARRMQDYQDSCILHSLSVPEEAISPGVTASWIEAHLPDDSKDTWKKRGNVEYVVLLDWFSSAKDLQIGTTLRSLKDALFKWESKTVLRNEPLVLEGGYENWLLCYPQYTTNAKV

B1: Keratin-85 41-55 peptide, cellulose-bound (SPOT array) (peptide, UniProt P78386 41-55, looked up)
peptide: GVSCYRGLTGFGSRS
notes: Keratin-85 (KRT85), residues 41-55; holds an Rx[LI]xG motif; also called KRT85_(41 − 55); source: bought: JPT Peptide Technologies, cellulose membrane
binding result [1]: binds

B2: Tumour protein 63 608-622 peptide, cellulose-bound (SPOT array) (peptide, UniProt Q9H3D4 608-622, looked up)
peptide: HEFSSPSHLLRTPSS
notes: holds an SSPxxL[LM] motif; source: alanine scan: INTAVIS
binding result [1]: binds

B5: TET3 1705-1720 peptide, unlabelled, synthetic (peptide)
peptide: GLALWEAKMKQLAERA
notes: source: synthetic peptide (GeneCust, >95% purity)
Kd [3]: 33 ± 9 µM

B6: KIAA1614 568-583 peptide, synthetic (peptide)
peptide: GMERVLGGLSSPLRLL
notes: also called positive control; source: JPT Peptide Technologies; free, unlabelled for fluorescence polarisation (GeneCust, >95% purity)
Kd [3]: 10 ± 2 µM

B7: FITC-TET3 1705-1720 peptide (Methylcytosine dioxygenase TET3) (peptide)
peptide: {FITC}-GLALWEAKMKQLAERA
notes: also called probe peptide; source: synthetic peptide, bought: GeneCust (France), > 95% purity
Kd (USP8 Rhod (174–317)): 0.7 µM

Results, then the binder that gave them:

binding result [2]: binds
B3: DNAJB6 118-130 peptide, cellulose-bound (SPOT array) (peptide, UniProt O75190 118-130, looked up)
peptide: PFEDFFGNRRGPR
notes: DnaJ homolog subfamily B member 6 (DNAJB6), residues 118-130; holds a partial DFx{2,3}R motif; also called DnaJ homolog subfamily B member 6; source: alanine scan: INTAVIS

binding result [2]: binds
B4: Cadherin-1 863-877 peptide, cellulose-bound (SPOT array) (peptide, UniProt P12830 863-877, looked up)
peptide: NEWGNRFKKLADMYG
notes: cadherin-1 (CDH1), residues 863-877; holds an RFxxL motif; also called CDH1_(863 − 877); source: alanine scan: INTAVIS

binding result [2]: binds
B8: DBP 116-131 peptide, cellulose-bound (SPOT array) (peptide)
peptide: YVDLDAFLLEHGLPPS
notes: also called positive control; source: array of predicted peptides: JPT Peptide Technologies
